The values that follow come from FireProtDB (doi:10.1093/protein/gzu024).

For the first series the following is noted: Homo sapiens; pH 7.4; 23 °C; GdnSCN; fluorescence; Potassium phosphate buffer; NaCl; transition: 2; reversible: yes; structure 1TEN.
Consider “Tenascin, P24821 T888C E870C I833C S875C”, for which the denaturant m value is 4.17 kcal/mol/M, the “denaturant midpoint (higher = more stable)” value is 1.79 M and the unfolding free energy is 7.44 kcal/mol.

The series is the same for the next values; noted with them: Homo sapiens; pH 7.4; Thermal; DSC; Potassium phosphate buffer; NaCl; transition: 2; reversible: yes; structure 1TEN.
One may read the Tm as the temperature at the midpoint of the melting transition. For the substance Tenascin, P24821 A885V, the Tm turned out to be 59.8 °C and the “change of melting temperature, mutant - wild type (higher = more stable)” value (from here on “change of melting temperature, mutant”) was 1.1 °C.

Consider Tenascin, P24821 D850K, for which the Tm worked out at 63.7 °C and the “change of melting temperature, mutant” value was 5 °C.

As to Tenascin, P24821 E887I, the Tm worked out at 69.9 °C and the “change of melting temperature, mutant” value stood at 11.2 °C.

For the substance Tenascin, P24821 E887I T890K, the Tm was 74.9 °C and the “change of melting temperature, mutant” value is 16.2 °C.

Tenascin, P24821 E887I T890K D850K: the Tm came to 80.5 °C and the “change of melting temperature, mutant” value was 21.8 °C.

Regarding “Tenascin, P24821 E887I T890K D850K I833F”, the Tm was 82.6 °C and the “change of melting temperature, mutant” value was determined as 23.9 °C.

As to Tenascin, P24821 I833F, the Tm is 61 °C and the “change of melting temperature, mutant” value stood at 2.3 °C.

Take Tenascin, P24821 L820K: the Tm amounted to 56.7 °C and the “change of melting temperature, mutant” value is -2 °C.

For the substance Tenascin, P24821 Q808K, the Tm turned out to be 59.9 °C and the “change of melting temperature, mutant” value worked out at 1.2 °C.

With “Tenascin, P24821 T888C E870C I833C S875C”, the Tm was 80.6 °C.

Regarding Tenascin, P24821 T890K, the Tm came out at 63.9 °C and the “change of melting temperature, mutant” value amounted to 5.2 °C.

For the substance Tenascin, P24821 V811C I821C, the Tm is 50.6 °C.
